Read-outs that look alike come from different tables or passages of the source. Bridge positions count the residues as written; N and C are the ends. Ends that are not written are not given here. PLA = phenyl lactic acid
B1: [E9, E16K20(lactam), D28]G(4~29) (peptide)
peptide: GTFTSEYSKYLDERRAKDFVQWLMDT-NH2
modifications: lactam 13-17; N-terminus assumed
SMILES: CSCC[C@H](NC(=O)[C@H](CC(C)C)NC(=O)[C@H](Cc1c[nH]c2ccccc12)NC(=O)[C@H](CCC(N)=O)NC(=O)[C@@H](NC(=O)[C@H](Cc1ccccc1)NC(=O)[C@H](CC(=O)O)NC(=O)[C@@H]1CCCCNC(=O)CC[C@H](NC(=O)[C@H](CC(=O)O)NC(=O)[C@H](CC(C)C)NC(=O)[C@H](Cc2ccc(O)cc2)NC(=O)[C@H](CCCCN)NC(=O)[C@H](CO)NC(=O)[C@H](Cc2ccc(O)cc2)NC(=O)[C@H](CCC(=O)O)NC(=O)[C@H](CO)NC(=O)[C@@H](NC(=O)[C@H](Cc2ccccc2)NC(=O)[C@@H](NC(=O)CN)[C@@H](C)O)[C@@H](C)O)C(=O)N[C@@H](CCCNC(=N)N)C(=O)N[C@@H](CCCNC(=N)N)C(=O)N[C@@H](C)C(=O)N1)C(C)C)C(=O)N[C@@H](CC(=O)O)C(=O)N[C@H](C(N)=O)[C@@H](C)O
B2: [A2E3, E16K20(Lactam), D28]G(1~29) (peptide)
peptide: HAEGTFTSEYSKYLDERRAKDFVQWLMDT-NH2
modifications: lactam 16-20; N-terminus assumed
SMILES: CSCC[C@H](NC(=O)[C@H](CC(C)C)NC(=O)[C@H](Cc1c[nH]c2ccccc12)NC(=O)[C@H](CCC(N)=O)NC(=O)[C@@H](NC(=O)[C@H](Cc1ccccc1)NC(=O)[C@H](CC(=O)O)NC(=O)[C@@H]1CCCCNC(=O)CC[C@H](NC(=O)[C@H](CC(=O)O)NC(=O)[C@H](CC(C)C)NC(=O)[C@H](Cc2ccc(O)cc2)NC(=O)[C@H](CCCCN)NC(=O)[C@H](CO)NC(=O)[C@H](Cc2ccc(O)cc2)NC(=O)[C@H](CCC(=O)O)NC(=O)[C@H](CO)NC(=O)[C@@H](NC(=O)[C@H](Cc2ccccc2)NC(=O)[C@@H](NC(=O)CNC(=O)[C@H](CCC(=O)O)NC(=O)[C@H](C)NC(=O)[C@@H](N)Cc2c[nH]cn2)[C@@H](C)O)[C@@H](C)O)C(=O)N[C@@H](CCCNC(=N)N)C(=O)N[C@@H](CCCNC(=N)N)C(=O)N[C@@H](C)C(=O)N1)C(C)C)C(=O)N[C@@H](CC(=O)O)C(=O)N[C@H](C(N)=O)[C@@H](C)O
B3: [PLA6, E9, E16K20(Lactam)] glucagon(6-39) (Table 13, peptide 6) (peptide)
peptide: TSEYSKYLDERRAKDFVQWLMNTGPSSGAPPPS
modifications: PLA (phenyl lactic acid, in place of Phe6 of glucagon) at the N-terminus before the printed letters; lactam between E16 and K20 (glucagon numbering)

Tests used:
Test in all cases: cell-based or functional assay
[1] = target: T1, glucagon receptor (UniProt P47871 26-477, limits assumed)
[2] = target: T1, glucagon receptor; remark: listed apart in the source
[3] = target: T2, GLP-1 receptor (UniProt P43220 24-463, limits assumed)
[4] = target: T2, GLP-1 receptor; remark: listed apart in the source
Target sequence in this assay (P43220 24-463 limits assumed): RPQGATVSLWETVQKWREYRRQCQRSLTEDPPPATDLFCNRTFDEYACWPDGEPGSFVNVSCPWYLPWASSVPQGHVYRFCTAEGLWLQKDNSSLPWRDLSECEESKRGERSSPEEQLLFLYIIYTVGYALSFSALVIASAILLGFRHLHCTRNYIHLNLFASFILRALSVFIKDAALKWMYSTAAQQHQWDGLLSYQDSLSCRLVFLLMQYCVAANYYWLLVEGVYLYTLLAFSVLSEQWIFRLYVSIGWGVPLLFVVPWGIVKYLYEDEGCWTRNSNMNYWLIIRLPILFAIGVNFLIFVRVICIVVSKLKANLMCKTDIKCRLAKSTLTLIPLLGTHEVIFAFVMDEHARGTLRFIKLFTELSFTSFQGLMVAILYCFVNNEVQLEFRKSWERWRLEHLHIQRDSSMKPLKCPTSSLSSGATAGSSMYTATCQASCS

[5] = target: T1, glucagon receptor; remark: listed apart in the source
[6] = target: T2, GLP-1 receptor; remark: listed apart in the source

T1 sequence (P47871 26-477 limits assumed): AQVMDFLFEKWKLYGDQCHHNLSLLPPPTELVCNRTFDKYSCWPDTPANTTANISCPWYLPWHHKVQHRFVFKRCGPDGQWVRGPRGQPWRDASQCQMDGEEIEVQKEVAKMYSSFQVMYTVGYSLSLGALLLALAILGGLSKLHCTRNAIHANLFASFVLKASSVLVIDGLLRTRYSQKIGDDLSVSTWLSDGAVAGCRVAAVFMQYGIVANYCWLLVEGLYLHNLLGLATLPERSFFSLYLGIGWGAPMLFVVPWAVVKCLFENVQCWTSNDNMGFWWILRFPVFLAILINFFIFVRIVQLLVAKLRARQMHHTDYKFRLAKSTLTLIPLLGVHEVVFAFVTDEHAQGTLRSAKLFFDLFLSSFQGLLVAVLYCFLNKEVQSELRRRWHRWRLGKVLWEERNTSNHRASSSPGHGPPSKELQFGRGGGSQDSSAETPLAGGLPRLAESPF

Binder	Glu IC50 [2] [nM]	Glucagon IC50 [5] [nM]	GLP-1 EC50 [6] [nM]	other results
FTSEYSKYLDERRAQDFVQWLMNTGPSSGAPPPS [E9, K12, E16 glucagon(6-39) (Table 13, peptide 1)]	762	–	–	Glucagon IC50 [1]: 762 nM
FTSEYSKYLDERRAQDFVQWLMNTGPSSGAPPPS (lactam 7-11) [E9, K12E16(lactam) glucagon(6-39) (Table 13, peptide 2)]	2010	–	–	GLP-1 EC50 [3]: 63 nM; Glucagon IC50 [1]: 2010 nM; GLP-1 EC50 [4]: 63 nM
FTSEYSKYLDERRAKDFVQWLMNTGPSSGAPPPS (lactam 11-15) [E9, E16K20(lactam) glucagon(6-39) (Table 13, peptide 3)]	42	–	–	GLP-1 EC50 [3]: 36 nM; Glucagon IC50 [1]: 42 nM; GLP-1 EC50 [4]: 36 nM
FTSDYSKYLDERRAQDFVQWLMNTGPSSGAPPPS (lactam 7-11) [D9, K12E16(Lactam) glucagon(6-39) (Table 13, peptide 4)]	828	–	–	GLP-1 EC50 [4]: 119 nM
{PLA}-TSEYSKYLDERRAQDFVQWLMNTGPSSGAPPPS (lactam 6-10) [[PLA6, E9, K12E16(Lactam) glucagon(6-39) (Table 13, peptide 5)]	72	–	–	GLP-1 EC50 [4]: 6 nM
{PLA}-TSDYSKYLDERRAKDFVQWLMDT (lactam 10-14) [[PLA6, D9, E16K20(lactam), D28]G(6-29)]	–	10 to 30	–	GLP-1 EC50 [3]: 4 nM; Glucagon IC50 [1]: 6 nM
{PLA}-TSDYSKYLDERRAQDFVQWLMDT (lactam 6-10) [[PLA6, D9, K12E16(Lactam), D28]G(6-29)]	–	63	177	–
{PLA}-TSDYSKYLDERRAKDFVEWLMDT (lactam 14-18) [[PLA6, D9, E16, K20E24(Lactam), D28]G(6-29)]	–	74	239	–
{PLA}-TSDYSKYLDERRAQDFVEWLMKT (lactam 18-22) [[PLA6, D9, E16, E24K28(lactam)]G(6~29)]	–	22	289	–
B1	–	10 to 30	151	–
AEGTFTSEYSKYLDERRAKDFVQWLMDT (lactam 15-19) [[A2E3, E16K20(Lactam), D28]G(2~29)]	–	63	–	–
B2	–	–	0.2	Glucagon IC50 (nM); PA = partial antagonist [5]: 130 nM
HSQGTFTSDYARYLDARRAREFIKWLVRGRG [ANK2 (Bayer peptide)]	–	–	0.28	–
B3	–	–	–	GLP-1 EC50 [3]: 20 nM
